{"source": "patent US11781164B2", "about": "“Demethylation of reticuline and derivatives thereof with fungal cytochrome P450” (priority 2017, dated 2023)", "molecules": {"B1": {"name": "CYPDN17: cytochrome P450 homolog A0A2G4SQ34 from Rhizopus microsporus, codon-optimized (protein, listed as Rhizopus microsporus)", "chain": "MDHLIQVYNSSTQVLIPVLQKRSKASYITAAIALIIAQRLYSYFRVPKHLRGFPKLPYFGIAKSLLTRESPRERVKKYVLPIIDENDGFYISKIPFGWMLYIANPVAAKQLLLKSSGFPKNHGLLDNMGENLFVEFIGKDNVALSNGDTWKRQRKVMNPAFHHSLPIKTMSKVVFSLISAIEQANGTIPVASAMQNFTLDTLGLAIFGFDFKALQGDPDEWTKTYRFVSDCIFDPVINVFSSYSFIIDRIYPRRRRGAIATKKLSEKFLKIAQQKRKEIKSGAYADVPDNEKDLLTLMLEAEEKGDTWTSEDELRHNIAILFVAGHDTTAHALSFCFYHLAKNKDVQQKLRKEVLSILGDKPVDVVPTVEQLKNMQYLNMVIKENLRINSPADMLFSRDVKEDTILANTLIPKGTVVTINIEALHYNPRLWHNPDQFDPERFAPGGEHEKHEGMTWLPFSNGTRQCLGMNFSLFEQRLVIAMILKKYEISIPEDSIHRDHIVSDIPFNGAPKSLKLTFTKRH"}, "B2": {"name": "CYPDN8: cytochrome P450 homolog A0A0C7AZL4 from Rhizopus microsporus, codon-optimized (protein, listed as Rhizopus microsporus)", "chain": "MDHLIQVYNSSTQVLIPVLQKRSKASYITAAIALIIAQRLYSYFRVPKHLRGFPKLPYFGIAKSFFAKESPRERVKKYILPIINERDGFYISNIPFGWMLYVTNPIAAKQILLKSNGFPKNHGLLEDMGENLFIEFIGKDNVVLTNGDTWKRQRKVMNPAFHHSLPIKTMSNVVFSLISVIDQANGTVPVASTMQNFTLDTLGLAIFGFDFKALQGDGDEWTKTYRLVSDCLFDPIINVFSSYSFIFDRIYPRRRRGAMATRKLGEKFLEIAQQKRMEIKSGAFADVPDNEKDLLTLMLEAEEKGDVWTSEDELRHNIAVLFLAGHDTTAHALSFCFYHLAKNKDIQQKLRKEVLDLLGDEPVDVVPTVEQLKDMQYLNMVIKENLRMNSPADMLFSRDVQEDIVLANTFIPKGTVISINIEALHCNPKLWHNPDQFDPERFAPGGEHEQHEGMTWLPFSNGTRQCLGMNFSLFEQRLVIAMILKKYEISIPEDSIHRNHIINDMPFNVAPKSLELTFTKRY", "modifications": "codon-optimized"}, "B3": {"name": "CYPDN11: cytochrome P450 homolog A0A068SB73 from Lichtheimia corymbifera, codon-optimized (protein, listed as Lichtheimia corymbifera)", "chain": "MAVASPQIKNMVTMDRLQDIYSTVSQHVVAHASAVTSRQRKISISAAVALVAFYTVYKVVTPPANLRHIPSMGFFSYLNAFLRGKQLHDISKNVVLPHAVNVDNGVYLRFDILGWTVHIARPEAAKRFLLKSDIFPKADMISERGNTLFGKFVFNRNIVMLNGDDWKAQRKVANPAFHRAMPVELFGRLTQKTLKKMEEEMDGGTLNFHDITERYTLEVIGLAGFEFEFGAIENPKSEWVDRYQRLIEATFNPWFIAFPNLDMRYRFLFPSRKRLHREMDAFLDKMSQVITHKRELLNHQKTTVPESERDILTLMIEAEKNGEGSMTNEELQNNLLVFFIAGHDTTSLALSYAAYYLAVNPDVQRKAREEAIRVLGDAPEDVMPTVEQTRQLTYINMVIKETLRMSPPLATIPVREASEDTELCGTFIPKGTRTFLDIYEIQHNPTVWKDPETFKPERFKPGGEAEELAGSGMSWLPFSNGSRQCIGLNFSLVEQRVFLPMLLRKYEWHLPEDSIHKERIQTMGLAVIKPKDLKLTFKKRY"}, "B4": {"name": "CYPDN13: cytochrome P450 homolog A0A1X2HZE4 from Absidia repens, codon-optimized (protein, listed as Absidia repens)", "chain": "MGTSYKRKAAYVTIGAAVVLLFRSIYGFYYVPKSLRHLPCVGYRELAYSIMKREDAATRARSVLGQAIKEKNGAFVAKFPMEWTVFLTSPRTIQAVLLKSDKFPKTYDMFHALGESSPFVKFLGIKNVGFSNGDDWKRQRKVMNPAFQRSVPVEMFGKLMQKGILAIEKQGYEVRALDFFERITLDSIGIFLFSFDFGSLDNPNSVWSLTYDTIRRGIKNPALTVFPQLDCLLKYVTPGRRHLDQCVTKLNNLLMEVAKEKRRQVQSPSDKLIPDSEKDLLTLILEAELRGDGSASDEELRGNLALFFLAGHETTASAMCFCLYNLAMNKDIQEKARKEVLEVLGDEPVDVRPDIQDLKQFRYMDMILHENLRRFGPAAMLLPRKSEEDFVADGILIPKNTPVVIDLNTMHHNPQVWKDPEIFDPERFAPGGEYEANGEKMAWLPFSSGSRVCIGKSFSMAEQRVFLSMLLKKYEWDFPDDSIHRDGIKMENFENNAPESLSFRFHPRY"}, "B5": {"name": "CYPDN9: cytochrome P450 homolog A0A1X2HQ99 from Syncephalastrum racemosum, codon-optimized (protein, listed as Syncephalastrum racemosum)", "chain": "MFRPPAGLPKLPIINYFRLLWALYRKESPTRRSQRLILPALQKHNAKAYLAKVPYTWTVYLVDPVAVKTFLMRNGTFPKTMESIDAFDQSHPNVQFWGRENLGFSVGDSWKRQRKIIFPAFRRAMPVQLFGELVPKMFDLIDKEHSTIAIDLMQRFTLDALGLAAFSFDFHALDNHNNEWEVAYEMIRKELVSPLTNMLARYDYILKYIIPGRAEKQAAVSKINHLLSDIANERRKMIKRNPDMLKVPDSEKDLLTLMLESDLENSDDPASEELIRANLATFFLAGHDTTANTLSFWLYHLAMYKDIQKKAREEVIETMGGAPEDIVPTAEQLKKMKYMDCIIKENLRFMGPALELFPRIAKEDYNLNGIFIPKGTRVSVDLHTLHHHPDVWKEPERFDPLRFVENGEHSKHEGLSWIAFSSGARVCIGQNFSLVEQRVVMSMLLRRYEWDIPEDSIHREGLQLKDTNNQAPRSLEIVFKKRY", "modifications": "codon-optimized"}, "B6": {"name": "CYPDN10: cytochrome P450 homolog A0A0B7NB52 from Parasitella parasitica, codon-optimized (protein, listed as Parasitella parasitica)", "chain": "MAIENFMQSYNRAIENVLPILRKRSKASYIGMAIMCIVIKQVYSAYSVPKHLQRFPKVSFLSMIRSYLIKEAVVERTKRLVTPLTDAGHGFYVCKIPLTWTVFVTDPIAAKTLLLKTEFFPKSHAFFDALGDNSPAVQFLGRENVAASNGEIWKKQRKFMNPAFLRSSPVKTFSSVTHNLIKVIETQSDAVPIANCMKAFTIDALGLSAFGFDFQSLNGDPEGWTETYNIAIAGLFDPFINIFVKVDFMMNYISSKRKRINKAITRFNSMLEDLANKRRQEILNGETLGVPENEKDLLTLMIEADIREGSRTTSTELRHNIALFFLAGHDTTAHTLAFCLYNLAKNKHVQAKARAEVLDILGDEPKDVDPTMEDLKRMDYLNMVIKENLRRCGPVDKLLSRDTAEDIDLNGTLIPKGQKISIDFNSIHMNPKLWHNPEEFVPERFEPGGEFDQHTGFTWLPFSHGSRQCIGMNFSLTEQKVLLSMICKRAIEEI"}, "B7": {"name": "CYPDN12: cytochrome P450 homolog A0A1C7N669 from Choanephora cucurbitarum, codon-optimized (protein, listed as Choanephora cucurbitarum)", "chain": "MFTETALQIYHQMAEKVLPILKRQPKSSYIGAALVFLLVAEIRRQLSVPKHLKKFPTIGVFTLMKSFMRNDSVIERHNRLVAPIVKQGHKFYAAKIPFDWSLSIVDPEIAKIMLMKSDAFPKSQGFTRKLGDSSLIVRFTGRDNVSISNGHVWKRQRKFMNPAFRRSTPIKTFGELTLKFFDCVDEQPQDFPAAIKLKNYTLDALGIAAFDFDFKSLSGDPEGWTEIYNVIMKGMFDPWVFLFGKMEFILQYIIPSKRECIKSVVKFNKMLVEMADKRRQEIQNGKKLNTPNSEKDLLTLMIEAEMEEGIMTTNEELRENIALFFLAGQDSTGNSLSFCLYHLAKNKHVQDKLRREIMSVMGDRDLDAIPTVEDFKDMPYLNMVIKENLRLSGPADRFLDRVVAEDIVLGGELIPKGTLITVDVASIHYNPEYWHDPEVFIPERFEPNGEFDQHAGVAWLPFSNGARQCIGMNFSLAEQRVFLTMLLRRYEVGISKDSIHYDSIVYEQSFTFAPSSLTLNFTKLN"}, "B8": {"name": "CYPDN14: cytochrome P450 homolog A0A168T1R5 from Absidia glauca, codon-optimized (protein, listed as Absidia glauca)", "chain": "MPIVNALQTYSYEEPINFLKDVWLNRLFPAGTSNRKKAALLTLGATIALVCRTVYRLYRVPRSLRHIPAVGYVAMLRSILKREDATTRAMTIFQPAMKKGNGVFLVNFPLEWSIYVAEPLAAKAVLMKSDNFPKSIDFIHALGKENPVVKFFGTDNVALVNGEQWKRQRKVMNPAFHRAMPVQMFGRLLQKGFKNIEEQGHQVAALDFFQRLTLDALGHAVFGFDFGALNDREAVWTVTYESIRLNLRNPLAFAFPSMDWLLKYVIPGRLQMAASVDKLNGLMMDMIKEKRIKLLESQAQDDTPENEKDLLTLMLEAEQRGEGTTNDEELRSNMAVFFLAGHETTANTMSFCLYNLAMDKSVQEKARQEVIKVLGDEPEDVLPRNEELRQIPYLDMILKENLRRFGPASMLNARKTVEDFDMNGTFIPKNTSVIVETNALHHNPEVWKNPEQFDPERFAPGGEHETSHEGMAWLPFSSGSRGCLGMNFSMAEQRVFLAMLLRKYEWDLPKDSIHKNGIQIGNFQNACPDSLKIQFTPRY"}, "B9": {"name": "CYPDN16: cytochrome P450 homolog A0A1X2HFU1 from Syncephalastrum racemosum, codon-optimized (protein, listed as Syncephalastrum racemosum)", "chain": "MTQLTTPDTLGKLLAIYRQTPASRRASWIGWAVAATVIASQLYKTLVPPSNLPNLPTINYFRLLSSFLRRDSPTIRSQEILIPALEKHEQKKAYLAKLPLTWTVFLVDPIAAKIFLMKMDIFPKIKETIDALDSQHPIVEFFGRENVAISVGEAWRNQRKVMNPAFRRAMPISIFGNLMFKVFKNIEENKPVIAIDLMQAFTLDALGRAAFSFDFHALDDQHSIWVETYEIIRQSLRNPANAVLARYNFITKYLMPGRAKQKAATHKLNSLLLEMASRKRAELEKHPELRELPDSEKDLLTLMVEADMESGDDPTSAELLRANLSVFFLAGHDTTANTLSFWLYHMAVNKDVQAKAREEVIKILGDGPEDVMPTADQCKQMTYLDCIIKENLRLLGPASQLIPRMATEDVDLNGIFIPKGTRVTVDMHTMHYSPMLWKDPGVFKPDRFLDEGEHSQHRGLAWLPFSSGGRQCLGMNFSLTEQRVVMSMMLRKYTWELPADSIHRDGVKLNEVNTVAPRTLSIIFQQRYH"}}, "system": "thebaine", "test": "Demethylation of thebaine by new cytochrome P450 fungal and plant homologs co-expressed with CPRs in S. cerevisiae", "settings": "0.5 mM thebaine, SC or DELFT media pH 7, 72 h; for Northebaine production: 30° C., co-expressed with Cel_CPR_co, Tp_CPR_5866, Tp_CPR_DN10898 or POR1", "data": [{"molecule": "B1", "values": [{"measurement": "O-demethylation activity compared to the positive control Ps_CODM_co", "result": "substantially higher"}, {"measurement": "O-demethylation activity, converting thebaine to oripavine", "result": "display 0-demethylation activity"}, {"measurement": "nororipavine production in the presence of thebaine", "result": "detected"}, {"measurement": "Northebaine production", "result": "+"}]}, {"molecule": "B2", "values": [{"measurement": "O-demethylation activity compared to the positive control Ps_CODM_co", "result": "substantially higher"}, {"measurement": "O-demethylation activity, converting thebaine to oripavine", "result": "display 0-demethylation activity"}, {"measurement": "nororipavine production in the presence of thebaine", "result": "detected"}, {"measurement": "Northebaine production", "result": "+"}]}, {"molecule": "B3", "values": [{"measurement": "Northebaine production", "result": "+"}]}, {"molecule": "B4", "values": [{"measurement": "Northebaine production", "result": "+"}]}, {"molecule": "B5", "values": [{"measurement": "Northebaine production", "result": "−"}]}, {"molecule": "B6", "values": [{"measurement": "Northebaine production", "result": "+"}]}, {"molecule": "B7", "values": [{"measurement": "Northebaine production", "result": "+"}]}, {"molecule": "B8", "values": [{"measurement": "Northebaine production", "result": "+"}]}, {"molecule": "B9", "values": [{"measurement": "Northebaine production", "result": "+"}]}]}
